Test results taken from patent US20240118272A1.

Tests used:
[1] = biological target: CD81(ECD)-ALP conjugate (human; bovine); experiment: HI-1000 capture immunoassay; calibrator C5, 2500 ng/mL; run 3
[2] = biological target: CD81(ECD)-ALP conjugate (human; bovine); experiment: HI-1000 capture immunoassay; calibrator C5, 883.16 mU/L; mean of 3
[3] = biological target: CD81(ECD)-ALP conjugate (human; bovine); experiment: HI-1000 capture immunoassay; calibrator C3, 55.20 mU/L; mean of 3
[4] = biological target: CD81(ECD)-ALP conjugate (human; bovine); experiment: HI-1000 capture immunoassay; calibrator C3, 100 ng/mL; mean of 3
[5] = biological target: CD81(ECD)-ALP conjugate (human; bovine); experiment: HI-1000 capture immunoassay; calibrator C5, 2500 ng/mL; run 1
[6] = biological target: CD81(ECD)-ALP conjugate (human; bovine); experiment: HI-1000 capture immunoassay; calibrator C1, 3.45 mU/L; run 3
[7] = biological target: CD81(ECD)-ALP conjugate (human; bovine); experiment: HI-1000 capture immunoassay; calibrator C5, 2500 ng/mL; mean of 3
[8] = biological target: CD81(ECD)-ALP conjugate (human; bovine); experiment: HI-1000 capture immunoassay; calibrator C3, 55.20 mU/L; run 2
[9] = biological target: CD81(ECD)-ALP conjugate (human; bovine); experiment: HI-1000 capture immunoassay; calibrator C2, 13.80 mU/L; run 2
[10] = biological target: CD81(ECD)-ALP conjugate (human; bovine); experiment: HI-1000 capture immunoassay; calibrator C2, 20 ng/mL; run 3
[11] = biological target: CD81(ECD)-ALP conjugate (human; bovine); experiment: HI-1000 capture immunoassay; calibrator C1, 4 ng/mL; run 3
[12] = biological target: CD81(ECD)-ALP conjugate (human; bovine); experiment: HI-1000 capture immunoassay; calibrator C2, 20 ng/mL; mean of 3
[13] = biological target: CD81(ECD)-ALP conjugate (human; bovine); experiment: HI-1000 capture immunoassay; calibrator C1, 4 ng/mL; mean of 3
[14] = biological target: CD81(ECD)-ALP conjugate (human; bovine); experiment: HI-1000 capture immunoassay; calibrator C2, 20 ng/mL; run 2
[15] = biological target: CD81(ECD)-ALP conjugate (human; bovine); experiment: HI-1000 capture immunoassay; calibrator C5, 2500 ng/mL; run 2
[16] = biological target: CD81(ECD)-ALP conjugate (human; bovine); experiment: HI-1000 capture immunoassay; calibrator C2, 13.80 mU/L; run 3
[17] = biological target: CD81(ECD)-ALP conjugate (human; bovine); experiment: HI-1000 capture immunoassay; calibrator C4, 220.80 mU/L; run 1
[18] = biological target: CD81(ECD)-ALP conjugate (human; bovine); experiment: HI-1000 capture immunoassay; calibrator C4, 500 ng/mL; run 3
[19] = biological target: CD81(ECD)-ALP conjugate (human; bovine); experiment: HI-1000 capture immunoassay; calibrator C5, 883.16 mU/L; run 3
[20] = biological target: CD81(ECD)-ALP conjugate (human; bovine); experiment: HI-1000 capture immunoassay; calibrator C2, 13.80 mU/L; run 1
[21] = biological target: CD81(ECD)-ALP conjugate (human; bovine); experiment: HI-1000 capture immunoassay; calibrator C3, 100 ng/mL; run 3
[22] = biological target: CD81(ECD)-ALP conjugate (human; bovine); experiment: HI-1000 capture immunoassay; calibrator C1, 3.45 mU/L; run 2
[23] = biological target: CD81(ECD)-ALP conjugate (human; bovine); experiment: HI-1000 capture immunoassay; calibrator C5, 883.16 mU/L; run 1
[24] = biological target: CD81(ECD)-ALP conjugate (human; bovine); experiment: HI-1000 capture immunoassay; calibrator C1, 3.45 mU/L; run 1
[25] = biological target: CD81(ECD)-ALP conjugate (human; bovine); experiment: HI-1000 capture immunoassay; calibrator C2, 20 ng/mL; run 1
[26] = biological target: CD81(ECD)-ALP conjugate (human; bovine); experiment: HI-1000 capture immunoassay; calibrator C4, 220.80 mU/L; mean of 3
[27] = biological target: CD81(ECD)-ALP conjugate (human; bovine); experiment: HI-1000 capture immunoassay; calibrator C4, 500 ng/mL; run 2
[28] = biological target: CD81(ECD)-ALP conjugate (human; bovine); experiment: HI-1000 capture immunoassay; calibrator C4, 500 ng/mL; mean of 3
[29] = biological target: CD81(ECD)-ALP conjugate (human; bovine); experiment: HI-1000 capture immunoassay; calibrator C4, 220.80 mU/L; run 3
[30] = biological target: CD81(ECD)-ALP conjugate (human; bovine); experiment: HI-1000 capture immunoassay; calibrator C3, 100 ng/mL; run 2
[31] = biological target: CD81(ECD)-ALP conjugate (human; bovine); experiment: HI-1000 capture immunoassay; calibrator C1, 4 ng/mL; run 1
[32] = biological target: CD81(ECD)-ALP conjugate (human; bovine); experiment: HI-1000 capture immunoassay; calibrator C3, 55.20 mU/L; run 3
[33] = biological target: CD81(ECD)-ALP conjugate (human; bovine); experiment: HI-1000 capture immunoassay; calibrator C2, 13.80 mU/L; mean of 3
[34] = biological target: CD81(ECD)-ALP conjugate (human; bovine); experiment: HI-1000 capture immunoassay; calibrator C1, 4 ng/mL; run 2
[35] = biological target: CD81(ECD)-ALP conjugate (human; bovine); experiment: HI-1000 capture immunoassay; calibrator C5, 883.16 mU/L; run 2
[36] = biological target: CD81(ECD)-ALP conjugate (human; bovine); experiment: HI-1000 capture immunoassay; calibrator C4, 220.80 mU/L; run 2
[37] = biological target: CD81(ECD)-ALP conjugate (human; bovine); experiment: HI-1000 capture immunoassay; calibrator C3, 100 ng/mL; run 1
[38] = biological target: CD81(ECD)-ALP conjugate (human; bovine); experiment: HI-1000 capture immunoassay; calibrator C1, 3.45 mU/L; mean of 3
[39] = biological target: CD81(ECD)-ALP conjugate (human; bovine); experiment: HI-1000 capture immunoassay; calibrator C4, 500 ng/mL; run 1
[40] = biological target: CD81(ECD)-ALP conjugate (human; bovine); experiment: HI-1000 capture immunoassay; calibrator C3, 55.20 mU/L; run 1

Sequence of CD81(ECD)-ALP conjugate (human; bovine) (chain, as listed by the source, chain 1 of 2): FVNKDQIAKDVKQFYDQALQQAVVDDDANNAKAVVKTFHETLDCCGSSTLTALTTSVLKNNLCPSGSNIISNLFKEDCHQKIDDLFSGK
Sequence of CD81(ECD)-ALP conjugate (human; bovine) (P19111 20-506, chain 2 of 2): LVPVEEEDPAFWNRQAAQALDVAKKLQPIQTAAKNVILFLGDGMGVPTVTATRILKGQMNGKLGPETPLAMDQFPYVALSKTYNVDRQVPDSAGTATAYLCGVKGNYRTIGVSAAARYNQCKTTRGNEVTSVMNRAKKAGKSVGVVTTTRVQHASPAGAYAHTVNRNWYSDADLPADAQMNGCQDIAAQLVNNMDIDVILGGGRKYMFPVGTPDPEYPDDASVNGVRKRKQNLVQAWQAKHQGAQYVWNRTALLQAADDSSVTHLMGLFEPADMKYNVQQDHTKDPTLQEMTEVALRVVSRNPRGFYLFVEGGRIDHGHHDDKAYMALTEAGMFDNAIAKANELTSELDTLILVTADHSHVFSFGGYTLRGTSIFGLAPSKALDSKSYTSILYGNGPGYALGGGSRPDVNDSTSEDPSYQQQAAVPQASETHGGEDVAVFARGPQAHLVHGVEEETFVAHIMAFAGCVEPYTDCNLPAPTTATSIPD

Count value [1]: 486000 count | Count value (av) [2]: 498000 count | Count value (av) [3]: 20700 count | Count value (av) [4]: 19900 count | Count value [5]: 498000 count | Count value [6]: 1340 count | Count value (av) [7]: 494000 count | Count value [8]: 20400 count | Count value [9]: 4600 count | Count value [10]: 4640 count | Count value [11]: 1280 count | Count value (av) [12]: 4500 count | Count value (av) [13]: 1280 count | Count value [14]: 4380 count | Count value [15]: 496000 count | Count value [16]: 4610 count | Count value [17]: 105000 count | Count value [18]: 99600 count | Count value [19]: 494000 count | Count value [20]: 4650 count | Count value [21]: 19600 count | Count value [22]: 1430 count | Count value [23]: 503000 count | Count value [24]: 1380 count | Count value [25]: 4480 count | Count value (av) [26]: 102000 count | Count value [27]: 100000 count | Count value (av) [28]: 100000 count | Count value [29]: 102000 count | Count value [30]: 20000 count | Count value [31]: 1270 count | Count value [32]: 20900 count | Count value (av) [33]: 4620 count | Count value [34]: 1300 count | Count value [35]: 496000 count | Count value [36]: 99500 count | Count value [37]: 20000 count | Count value (av) [38]: 1380 count | Count value [39]: 101000 count | Count value [40]: 20900 count
Substance: anti-CD81 antibody (Clone: 5A6)
